{"source": "paper PMC6289755", "about": "(Journal of molecular biology, 2018)", "key": {"[1]": {"molecular_target": "T1, TRIM25 WT (human, UniProt Q14258 1-630)", "T1 sequence (Q14258 whole entry)": "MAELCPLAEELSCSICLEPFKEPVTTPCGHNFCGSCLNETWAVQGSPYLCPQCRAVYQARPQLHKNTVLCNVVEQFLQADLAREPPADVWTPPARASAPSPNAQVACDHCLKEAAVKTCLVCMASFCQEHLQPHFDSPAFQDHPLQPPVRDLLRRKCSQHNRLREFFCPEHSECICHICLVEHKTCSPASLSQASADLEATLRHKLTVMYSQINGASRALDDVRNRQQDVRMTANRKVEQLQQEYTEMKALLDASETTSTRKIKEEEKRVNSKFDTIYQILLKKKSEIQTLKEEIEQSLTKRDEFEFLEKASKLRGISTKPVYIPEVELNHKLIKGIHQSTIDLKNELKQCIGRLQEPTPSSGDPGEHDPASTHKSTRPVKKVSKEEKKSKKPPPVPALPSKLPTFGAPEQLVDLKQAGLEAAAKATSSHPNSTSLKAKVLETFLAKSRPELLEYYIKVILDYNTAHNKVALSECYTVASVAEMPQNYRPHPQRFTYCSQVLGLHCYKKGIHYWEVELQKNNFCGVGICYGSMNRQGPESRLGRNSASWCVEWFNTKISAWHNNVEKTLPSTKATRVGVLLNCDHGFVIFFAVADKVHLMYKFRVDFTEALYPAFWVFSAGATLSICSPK", "assay": "SEC-MALS"}, "[2]": {"molecular_target": "TRIM25 7KA mutant (human, UniProt Q14258 1-630, K381A;K382A;K385A;K388A;K389A;K391A;K392A)", "assay": "SEC-MALS"}, "[3]": {"molecular_target": "TRIM25 CCD+7K (human, UniProt Q14258 189-409)", "sequence (Q14258 189-409)": "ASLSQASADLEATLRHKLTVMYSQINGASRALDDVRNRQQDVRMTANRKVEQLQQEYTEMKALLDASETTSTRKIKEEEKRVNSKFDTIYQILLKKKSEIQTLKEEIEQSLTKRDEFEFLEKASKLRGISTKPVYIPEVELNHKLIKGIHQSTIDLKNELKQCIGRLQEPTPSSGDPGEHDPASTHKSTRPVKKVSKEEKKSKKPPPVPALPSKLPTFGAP", "assay": "EMSA"}, "[4]": {"molecular_target": "TRIM25 CCD (human, UniProt Q14258 189-379)", "assay": "EMSA"}, "[5]": {"molecular_target": "T1, TRIM25 WT", "assay": "EMSA"}, "[6]": {"molecular_target": "TRIM25 SPRY (human, UniProt Q14258 410-630)", "assay": "EMSA"}, "[7]": {"molecular_target": "TRIM25 ΔSPRY (RBCC) (human, UniProt Q14258 1-379)", "assay": "EMSA"}, "[8]": {"molecular_target": "TRIM25 CCD-SPRY (human, UniProt Q14258 189-630)", "sequence (Q14258 189-630)": "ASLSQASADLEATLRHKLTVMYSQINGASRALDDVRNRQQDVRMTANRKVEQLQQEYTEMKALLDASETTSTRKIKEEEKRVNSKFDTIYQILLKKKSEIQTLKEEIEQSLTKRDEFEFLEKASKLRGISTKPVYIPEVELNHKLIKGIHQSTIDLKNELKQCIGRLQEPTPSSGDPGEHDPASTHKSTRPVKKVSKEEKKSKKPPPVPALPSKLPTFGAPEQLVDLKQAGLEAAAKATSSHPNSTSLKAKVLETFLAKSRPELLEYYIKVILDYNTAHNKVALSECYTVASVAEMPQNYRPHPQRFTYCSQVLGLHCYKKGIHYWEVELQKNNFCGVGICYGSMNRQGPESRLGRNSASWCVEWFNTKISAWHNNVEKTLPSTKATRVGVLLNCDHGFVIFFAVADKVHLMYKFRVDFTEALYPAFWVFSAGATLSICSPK", "assay": "EMSA"}, "[9]": {"molecular_target": "T2, TRIM25 7K peptide (human, UniProt Q14258 379-394)", "T2 chain": "PVKKVSKEEKKSKKPP", "assay": "EMSA"}, "[10]": {"molecular_target": "the molecule itself", "assay": "SEC-MALS"}}, "data": [{"binder": "56-bp dsRNA (dsRNA) RNA 1: AUGGCUAGCUGGAGCCACCCGCAGUUCGUACAAGGAUGACGAUGACAAGGGUACAA RNA 2: UUGUACCCUUGUCAUCGUCAUCCUUGUACGAACUGCGGGUGGCUCCAGCUAGCCAU", "values": [{"measurement": "binding result", "setting": "[1]", "value": "binds"}, {"measurement": "binding result", "setting": "[2]", "value": "no binding"}]}, {"binder": "28-bp dsRNA, fluorescent (dsRNA) RNA 1: AUGGCUAGCUGGAGCCACCCGCAGUUCG RNA 2: CGAACUGCGGGUGGCUCCAGCUAGCCAU", "values": [{"measurement": "binding result", "setting": "[3]", "value": "no binding"}, {"measurement": "binding result", "setting": "[4]", "value": "no binding"}, {"measurement": "Kd", "setting": "[5]", "value": "260 ± 30", "unit": "nM"}, {"measurement": "Kd", "setting": "[6]", "value": "3470 ± 1170", "unit": "nM"}, {"measurement": "binding result", "setting": "[7]", "value": "no binding"}, {"measurement": "Kd", "setting": "[8]", "value": "110 ± 20", "unit": "nM"}, {"measurement": "binding result", "setting": "[9]", "value": "no binding"}]}, {"binder": "Full-length TRIM25 7KA mutant, purified (enzyme, human, UniProt Q14258 1-630, looked up) MAELCPLAEELSCSICLEPFKEPVTTPCGHNFCGSCLNETWAVQGSPYLCPQCRAVYQARPQLHKNTVLCNVVEQFLQADLAREPPADVWTPPARASAPSPNAQVACDHCLKEAAVKTCLVCMASFCQEHLQPHFDSPAFQDHPLQPPVRDLLRRKCSQHNRLREFFCPEHSECICHICLVEHKTCSPASLSQASADLEATLRHKLTVMYSQINGASRALDDVRNRQQDVRMTANRKVEQLQQEYTEMKALLDASETTSTRKIKEEEKRVNSKFDTIYQILLKKKSEIQTLKEEIEQSLTKRDEFEFLEKASKLRGISTKPVYIPEVELNHKLIKGIHQSTIDLKNELKQCIGRLQEPTPSSGDPGEHDPASTHKSTRPVAAVSAEEAASAAPPPVPALPSKLPTFGAPEQLVDLKQAGLEAAAKATSSHPNSTSLKAKVLETFLAKSRPELLEYYIKVILDYNTAHNKVALSECYTVASVAEMPQNYRPHPQRFTYCSQVLGLHCYKKGIHYWEVELQKNNFCGVGICYGSMNRQGPESRLGRNSASWCVEWFNTKISAWHNNVEKTLPSTKATRVGVLLNCDHGFVIFFAVADKVHLMYKFRVDFTEALYPAFWVFSAGATLSICSPK", "values": [{"measurement": "binding result", "setting": "[10]", "value": "binds"}]}]}
